B1: STK38L (parent)
chain: RQLAYSTVGTPDYIAPEVFMQTGY
B2: FCHO1 (parent)
chain: HLELTRKLQDLIKDVLRYGEEQLK

Variants of: B1
Assay: protein stability index of a GFP-peptide fusion (GPS, HEK-293T) (PSI 1-6); higher = more stable
Conditions: c terminus: a fixed tail appended
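Further: lentivirally expressed fusions sorted by FACS into six bins by GFP to DsRed ratio, PSI derived from sequencing read proportions per bin multiplied by bin number.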

Variant	protein stability index
RGLAYSTVGTPDYIAPEVFMQTGY [Q2G]	1.84
RHLAYSTVGTPDYIAPEVFMQTGY [Q2H]	1.79
RVLAYSTVGTPDYIAPEVFMQTGY [Q2V]	1.46
RWLAYSTVGTPDYIAPEVFMQTGY [Q2W]	1.27
RILAYSTVGTPDYIAPEVFMQTGY [Q2I]	1.61
RYLAYSTVGTPDYIAPEVFMQTGY [Q2Y]	1.88
RSLAYSTVGTPDYIAPEVFMQTGY [Q2S]	2.4
RFLAYSTVGTPDYIAPEVFMQTGY [Q2F]	2.55
RLLAYSTVGTPDYIAPEVFMQTGY [Q2L]	1.7
RELAYSTVGTPDYIAPEVFMQTGY [Q2E]	2.3
RMLAYSTVGTPDYIAPEVFMQTGY [Q2M]	2.03
RNLAYSTVGTPDYIAPEVFMQTGY [Q2N]	2.16
RKLAYSTVGTPDYIAPEVFMQTGY [Q2K]	2.54
RALAYSTVGTPDYIAPEVFMQTGY [Q2A]	2.45
RRLAYSTVGTPDYIAPEVFMQTGY [Q2R]	3.34
RPLAYSTVGTPDYIAPEVFMQTGY [Q2P]	2.5
RDLAYSTVGTPDYIAPEVFMQTGY [Q2D]	2.69
RCLAYSTVGTPDYIAPEVFMQTGY [Q2C]	2.42
RTLAYSTVGTPDYIAPEVFMQTGY [Q2T]	2.53
WQLAYSTVGTPDYIAPEVFMQTGY [R1W]	2.84

Variant	protein stability index
PQLAYSTVGTPDYIAPEVFMQTGY [R1P]	3.41
MQLAYSTVGTPDYIAPEVFMQTGY [R1M]	1.79
QQLAYSTVGTPDYIAPEVFMQTGY [R1Q]	2.47
VQLAYSTVGTPDYIAPEVFMQTGY [R1V]	2.45
TQLAYSTVGTPDYIAPEVFMQTGY [R1T]	2.56
NQLAYSTVGTPDYIAPEVFMQTGY [R1N]	2.82
LQLAYSTVGTPDYIAPEVFMQTGY [R1L]	1.87
AQLAYSTVGTPDYIAPEVFMQTGY [R1A]	2.38
EQLAYSTVGTPDYIAPEVFMQTGY [R1E]	3.06
DQLAYSTVGTPDYIAPEVFMQTGY [R1D]	2.71
CQLAYSTVGTPDYIAPEVFMQTGY [R1C]	2.06
HQLAYSTVGTPDYIAPEVFMQTGY [R1H]	2.38
IQLAYSTVGTPDYIAPEVFMQTGY [R1I]	1.15
FQLAYSTVGTPDYIAPEVFMQTGY [R1F]	3.13
GQLAYSTVGTPDYIAPEVFMQTGY [R1G]	1.95
YQLAYSTVGTPDYIAPEVFMQTGY [R1Y]	2.51
SQLAYSTVGTPDYIAPEVFMQTGY [R1S]	2.38
KQLAYSTVGTPDYIAPEVFMQTGY [R1K]	2.71
RQAAYSTVGTPDYIAPEVFMQTGY [L3A]	2.55
RQCAYSTVGTPDYIAPEVFMQTGY [L3C]	2.06

Variants of: B2
Assay: as above
Conditions: c terminus: a fixed tail appended

Variant	protein stability index
HLELTRKLQDSIKDVLRYGEEQLK [L11S]	2.67
HLELTRCLQDLIKDVLRYGEEQLK [K7C]	1.55
HLELTRSLQDLIKDVLRYGEEQLK [K7S]	2.75
HLELTRKLQDLIKDVLEYGEEQLK [R17E]	1.76
HLELTRKLQDLIKDVLNYGEEQLK [R17N]	2.64
HLELTRKLQDLGKDVLRYGEEQLK [I12G]	2.88
HLELTRKLQDLPKDVLRYGEEQLK [I12P]	3.65
HLELTRKLYDLIKDVLRYGEEQLK [Q9Y]	3.31
HLELTRKLQDLITDVLRYGEEQLK [K13T]	1.67
HLELTRKLQDLIMDVLRYGEEQLK [K13M]	2.22
HLELTRKLQDLIKDVLRYPEEQLK [G19P]	1.78
HLELTRKLQDLIKDVLRYWEEQLK [G19W]	3.49
HLELTRKLQDLIKDVLRYNEEQLK [G19N]	2.18
HLELTRKLQDLIKDVLRYSEEQLK [G19S]	1.52
HLELTRKLQDLIKDVLRYKEEQLK [G19K]	1.59
HLELTRKLQDLIKDVLRTGEEQLK [Y18T]	1.88
HLELTRKLQDLIKDVLREGEEQLK [Y18E]	1.77
HLELTRKLQWLIKDVLRYGEEQLK [D10W]	2.82
HLELTRKLQELIKDVLRYGEEQLK [D10E]	3.03
HKELTRKLQDLIKDVLRYGEEQLK [L2K]	2.13
HLESTRKLQDLIKDVLRYGEEQLK [L4S]	2.76
HLEWTRKLQDLIKDVLRYGEEQLK [L4W]	3.23
HLEYTRKLQDLIKDVLRYGEEQLK [L4Y]	2.41
HLELTRKLQDLIKDVLRYGEEQLF [K24F]	2.05
HLELTRKLQDLIKDVLRYGEEQLA [K24A]	1.59
HLELFRKLQDLIKDVLRYGEEQLK [T5F]	2.34
HLELLRKLQDLIKDVLRYGEEQLK [T5L]	3.42

Variant	protein stability index
HLELHRKLQDLIKDVLRYGEEQLK [T5H]	3.29
HLELTRKLQDLIKDVLRYGETQLK [E21T]	2.8
HLELTRKLQDLIKDVLRYGERQLK [E21R]	2.43
HLELTRKLQDLIKDVLRYGEYQLK [E21Y]	3.04
HLELTRKLQDLIKKVLRYGEEQLK [D14K]	4.59
HLELTRKLQDLIKCVLRYGEEQLK [D14C]	3.08
HLELTRKLQDLIKDVLRYGHEQLK [E20H]	2.58
HLELTRKLQDLIKDVLRYGEEQTK [L23T]	3.42
HLELTRKLQDLIKDVLRYGEEQDK [L23D]	2.53
HLELTRKVQDLIKDVLRYGEEQLK [L8V]	1.97
HLELTRKMQDLIKDVLRYGEEQLK [L8M]	1.45
HLELTRKSQDLIKDVLRYGEEQLK [L8S]	3.28
HLELTRKIQDLIKDVLRYGEEQLK [L8I]	4.57
HLELTRKHQDLIKDVLRYGEEQLK [L8H]	2.71
HLELTRKKQDLIKDVLRYGEEQLK [L8K]	2.74
SLELTRKLQDLIKDVLRYGEEQLK [H1S]	2.96
RLELTRKLQDLIKDVLRYGEEQLK [H1R]	5.3
QLELTRKLQDLIKDVLRYGEEQLK [H1Q]	2.8
FLELTRKLQDLIKDVLRYGEEQLK [H1F]	1.99
HLELTRKLQDLIKDVLRYGEERLK [Q22R]	3.19
HLELTRKLQDLIKDVLRYGEEILK [Q22I]	2.21
HLELTRKLQDLIKDILRYGEEQLK [V15I]	2.96
HLELTNKLQDLIKDVLRYGEEQLK [R6N]	1.61
HLELTGKLQDLIKDVLRYGEEQLK [R6G]	2.11
HLELTIKLQDLIKDVLRYGEEQLK [R6I]	1.95
HLELTRKLQDLIKDVIRYGEEQLK [L16I]	2.39
HLELTRKLQDLIKDVERYGEEQLK [L16E]	3.18

Reference: the supplement of paper PMC10567573
